B1: Azoarcus group I ribozyme (parent)
chain: GUGCCUUGCGCCGGGAAACCACGCAAGGGAUGGUGUCAAAUUCGGCGAAACCUAAGCGCCCGCCCGGGCGUAUGGCAACGCCGAGCCAAGCUUCGGCGCCUGCGCCGAUGAAGGUGUAGAGACUAGACGGCACCCACCUAAGGCAAACGCUAUGGUGAAGGCAUAGUCCAGGGAGUGGCGAAAGUCACACAAACCGG

Variants of B1 are the subject of the data set. Nature of the data set: reverse-splicing fitness (ratio to wild type); higher = more active; in vitro selection; Mg2+ level not given. In a few lines:
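An in vitro group I ribozyme library with randomized positions was T7-transcribed and gel-purified. In triplicate, 10 pmol RNA in EPPS pH 7.5 was reacted with 50 pmoles of a 30-nt RNA substrate for 1 h at 37 °C across several added MgCl2 levels (1–48 mM), then stopped with EDTA. Products were reverse transcribed from a substrate-complementary primer, PCR-amplified and sequenced (HiSeq 4000). Fitness is a variant's read proportion after selection over that before, normalised to wild type.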
With GUGCCUUGCGCCGGGAAACCACGCAAGGGAUGGUGUCAAAUUCGGCGAAACCUAAGCGCCCGCCCGGGCGUAUGGCAACGCAGAGCCAAGCUUCGGCGCCUGCGCCGAUGGAGGUGUAGAGACUAGACGGCACCCACCUAAGGCAAACGUUAUGGUGAAGGCAUAGUCUAGGGAGGGGCGAAAGUCACACAAACCGG [C82A A111G C150U C169U U176G], the reverse-splicing fitness worked out at 0.00623. In the case of GUGCCUUGCGCCGGGAAACCACGCAAGGGAUGGUGUCAAAUUCGGCGAAACCUAAGCGCCCGCCCGGGCGUAUGGCAACGCUGAGCCAAGCUUCGGCGCCUGCGCCGAUGAAGGUGUAGUGACUAGACGGCACCCACCUAAGGCCAACGAUAUGGUGAAGGCAUAGUCGAGGGAGGGGCGAAAGUCACACAAACCGG [C82U A120U A145C C150A C169G U176G], the reverse-splicing fitness was determined as 0.00161. In the case of GUGCCUUGCGCCGGGAAACCACGCAAGGGAUGGUGUCAAAUUCGGCGAAACCUAAGCGCCCGCCCGGGCGUAUGGCAACGCUGAGCCAAGCUUCGGCGCCUGCGCCGAUGAAGGUGUAGAGACUAGACGGCACCCACCUAAGGCGAACGUUAUGGUGAAGGCAUAGUCAAGGGAGGGGCGAAAGUCACACAAACCGG [C82U A145G C150U C169A U176G], the reverse-splicing fitness turned out to be 0.00522.

On to GUGCCUUGCGCCGGGAAACCACGCAAGGGAUGGUGUCAAAUUCGGCGAAACCUAAGCGCCCGCCCGGGCGUAUGGCAACGCCGAGCCAAGCUUCGGCGCCUGCGCCGAUGAAGGUGUAGUGACUAGACGGCACCCACCUAAGGCCAACGGUAUGGUGAAGGCAUAGUCUAGGGAGAGGCGAAAGUCACACAAACCGG [A120U A145C C150G C169U U176A], for which the reverse-splicing fitness was determined as 0.00626. Take GUGCCUUGCGCCGGGAAACCACGCAAGGGAUGGUGUCAAAUUCGGCGAAACCUAAGCGCCCGCCCGGGCGUAUGGCAACGCGGAGCCAAGCUUCGGCGCCUGCGCCGAUGUAGGUGUAGUGACUAGACGGCACCCACCUAAGGCGAACGCUAUGGUGAAGGCAUAGUCAAGGGAGAGGCGAAAGUCACACAAACCGG [C82G A111U A120U A145G C169A U176A]: the reverse-splicing fitness amounted to 0.00574. Turning to GUGCCUUGCGCCGGGAAACCACGCAAGGGAUGGUGUCAAAUUCGGCGAAACCUAAGCGCCCGCCCGGGCGUAUGGCAACGCGGAGCCAAGCUUCGGCGCCUGCGCCGAUGGAGGUGUAGCGACUAGACGGCACCCACCUAAGGCAAACGGUAUGGUGAAGGCAUAGUCGAGGGAGGGGCGAAAGUCACACAAACCGG [C82G A111G A120C C150G C169G U176G], the reverse-splicing fitness came to 0.00647. Consider GUGCCUUGCGCCGGGAAACCACGCAAGGGAUGGUGUCAAAUUCGGCGAAACCUAAGCGCCCGCCCGGGCGUAUGGCAACGCGGAGCCAAGCUUCGGCGCCUGCGCCGAUGCAGGUGUAGUGACUAGACGGCACCCACCUAAGGCAAACGUUAUGGUGAAGGCAUAGUCGAGGGAGGGGCGAAAGUCACACAAACCGG [C82G A111C A120U C150U C169G U176G], for which the reverse-splicing fitness came to 0.00259. Consider GUGCCUUGCGCCGGGAAACCACGCAAGGGAUGGUGUCAAAUUCGGCGAAACCUAAGCGCCCGCCCGGGCGUAUGGCAACGCAGAGCCAAGCUUCGGCGCCUGCGCCGAUGCAGGUGUAGCGACUAGACGGCACCCACCUAAGGCCAACGGUAUGGUGAAGGCAUAGUCUAGGGAGUGGCGAAAGUCACACAAACCGG [C82A A111C A120C A145C C150G C169U], for which the reverse-splicing fitness was 0.00879. With GUGCCUUGCGCCGGGAAACCACGCAAGGGAUGGUGUCAAAUUCGGCGAAACCUAAGCGCCCGCCCGGGCGUAUGGCAACGCUGAGCCAAGCUUCGGCGCCUGCGCCGAUGGAGGUGUAGCGACUAGACGGCACCCACCUAAGGCCAACGCUAUGGUGAAGGCAUAGUCCAGGGAGAGGCGAAAGUCACACAAACCGG [C82U A111G A120C A145C U176A], the reverse-splicing fitness stood at 0.0156. For the variant GUGCCUUGCGCCGGGAAACCACGCAAGGGAUGGUGUCAAAUUCGGCGAAACCUAAGCGCCCGCCCGGGCGUAUGGCAACGCGGAGCCAAGCUUCGGCGCCUGCGCCGAUGAAGGUGUAGGGACUAGACGGCACCCACCUAAGGCGAACGUUAUGGUGAAGGCAUAGUCUAGGGAGGGGCGAAAGUCACACAAACCGG [C82G A120G A145G C150U C169U U176G], the reverse-splicing fitness amounted to 0.00473. Turning to GUGCCUUGCGCCGGGAAACCACGCAAGGGAUGGUGUCAAAUUCGGCGAAACCUAAGCGCCCGCCCGGGCGUAUGGCAACGCAGAGCCAAGCUUCGGCGCCUGCGCCGAUGAAGGUGUAGAGACUAGACGGCACCCACCUAAGGCAAACGCUAUGGUGAAGGCAUAGUCCAGGGAGGGGCGAAAGUCACACAAACCGG [C82A U176G], the reverse-splicing fitness came to 0.12.

As to GUGCCUUGCGCCGGGAAACCACGCAAGGGAUGGUGUCAAAUUCGGCGAAACCUAAGCGCCCGCCCGGGCGUAUGGCAACGCCGAGCCAAGCUUCGGCGCCUGCGCCGAUGAAGGUGUAGAGACUAGACGGCACCCACCUAAGGCAAACGGUAUGGUGAAGGCAUAGUCAAGGGAGCGGCGAAAGUCACACAAACCGG [C150G C169A U176C], the reverse-splicing fitness came out at 0.0144. On to GUGCCUUGCGCCGGGAAACCACGCAAGGGAUGGUGUCAAAUUCGGCGAAACCUAAGCGCCCGCCCGGGCGUAUGGCAACGCAGAGCCAAGCUUCGGCGCCUGCGCCGAUGGAGGUGUAGUGACUAGACGGCACCCACCUAAGGCGAACGAUAUGGUGAAGGCAUAGUCCAGGGAGAGGCGAAAGUCACACAAACCGG [C82A A111G A120U A145G C150A U176A], for which the reverse-splicing fitness came out at 0.00782. Consider GUGCCUUGCGCCGGGAAACCACGCAAGGGAUGGUGUCAAAUUCGGCGAAACCUAAGCGCCCGCCCGGGCGUAUGGCAACGCCGAGCCAAGCUUCGGCGCCUGCGCCGAUGCAGGUGUAGGGACUAGACGGCACCCACCUAAGGCAAACGAUAUGGUGAAGGCAUAGUCUAGGGAGGGGCGAAAGUCACACAAACCGG [A111C A120G C150A C169U U176G], for which the reverse-splicing fitness came out at 0.0056. On to GUGCCUUGCGCCGGGAAACCACGCAAGGGAUGGUGUCAAAUUCGGCGAAACCUAAGCGCCCGCCCGGGCGUAUGGCAACGCCGAGCCAAGCUUCGGCGCCUGCGCCGAUGGAGGUGUAGCGACUAGACGGCACCCACCUAAGGCGAACGGUAUGGUGAAGGCAUAGUCGAGGGAGGGGCGAAAGUCACACAAACCGG [A111G A120C A145G C150G C169G U176G], for which the reverse-splicing fitness was 0.00503.

These data come from the RNAGym collection of RNA variant scans (doi:10.1093/molbev/msab373).
